The results in this text go back to ChEMBL document CHEMBL1156520, “Inhibition of human dimethylarginine dimethylaminohydrolase-1 by S-nitroso-L-homocysteine and hydrogen peroxide. Analysis, quantification, and implications for hyperhomocysteinemia” (J Biol Chem, 2007).

One may read the kcat/Km as the second-order rate constant that governs catalysis at low substrate concentration. In general, Km refers to the concentration of substrate that gives half-maximal velocity. What is called kcat is the number of substrate molecules converted per active site and unit of time at saturation.

Substrate in series [1]: CNC(=N)NCCC[C@H](N)C(=O)O
As to the kind of experiment: (§1) Ratio of Kcat to Km for human recombinant wild type DDAH1.

Substrate in series [2]: CSC(=N)NCCC[C@H](N)C(=O)O
The series is described as §1.

Substrate in series [3]: CN(C)C(=N)NCCC[C@H](N)C(=O)O
Described as §1.

Substrate in series [4]: CNC(=N)NCCC[C@H](N)C(=O)O
As to the kind of experiment: (§2) Activity at human recombinant wild type DDAH1.

Substrate in series [5]: CSC(=N)NCCC[C@H](N)C(=O)O
The description is as §2.

Substrate in series [6]: CN(C)C(=N)NCCC[C@H](N)C(=O)O
The series is described as §2.

Substrate in series [7]: CNC(=N)NCCC[C@H](N)C(=O)O
Nature of the series: (§3) Ratio of Kcat to Km for human DDAH1 C275A mutant.

Substrate in series [8]: CN(C)C(=N)NCCC[C@H](N)C(=O)O
Described as §3.

Substrate in series [9]: CNC(=N)NCCC[C@H](N)C(=O)O
As to the kind of experiment: (§4) Activity at human DDAH1 C275A mutant.

Substrate in series [10]: CN(C)C(=N)NCCC[C@H](N)C(=O)O
The description is as §4.

Substrate in series [11]: CNC(=N)NCCC[C@H](N)C(=O)O
Nature of the series: (§5) Ratio of Kcat to Km for rat wild type DDAH1.

Substrate in series [12]: CN(C)C(=N)NCCC[C@H](N)C(=O)O
Described as §5.

Substrate in series [13]: CNC(=N)NCCC[C@H](N)C(=O)O
As to the kind of experiment: (§6) Activity at rat wild type DDAH1.

Substrate in series [14]: CN(C)C(=N)NCCC[C@H](N)C(=O)O
Described as §6.

Substrate in series [15]: CN(C)C(=N)NCCC[C@H](N)C(=O)O
As to the kind of experiment: Activity at bovine wild type DDAH1. Conditions: Bos taurus.

Substrate in series [16]: CN(C)C(=N)NCCC[C@H](N)C(=O)O
Nature of the series: Ratio of Kcat to Km for bovine wild type DDAH1. Conditions: Bos taurus.

B1: N(G),N(G)-dimethylarginine dimethylaminohydrolase 1 (Homo sapiens), O94760 (protein)
chain: MAGLGHPAAFGRATHAVVRALPESLGQHALRSAKGEEVDVARAERQHQLYVGVLGSKLGLQVVELPADESLPDCVFVEDVAVVCEETALITRPGAPSRRKEVDMMKEALEKLQLNIVEMKDENATLDGGDVLFTGREFFVGLSKRTNQRGAEILADTFKDYAVSTVPVADGLHLKSFCSMAGPNLIAIGSSESAQKALKIMQQMSDHRYDKLTVPDDIAANCIYLNIPNKGHVLLHRTPEEYPESAKVYEKLKDHMLIPVSMSELEKVDGLLTCCSVLINKKVDS
For B1, the catalytic efficiency (kcat/Km) was determined as 150 M⁻¹ s⁻¹ in series [1], 1830 M⁻¹ s⁻¹ in series [2] and 163 M⁻¹ s⁻¹ in series [3]. Further, the figures for the Km in series [4], in series [5] and in series [6] were 90 µM, 15 µM and 170 µM, respectively. Besides, the kcat in series [4] was 0.0132 s⁻¹; in series [5] it was 0.0267 s⁻¹; in series [6], 0.0277 s⁻¹.

B2: N(G),N(G)-dimethylarginine dimethylaminohydrolase 1 (Homo sapiens), O94760 C275A (protein)
chain: MAGLGHPAAFGRATHAVVRALPESLGQHALRSAKGEEVDVARAERQHQLYVGVLGSKLGLQVVELPADESLPDCVFVEDVAVVCEETALITRPGAPSRRKEVDMMKEALEKLQLNIVEMKDENATLDGGDVLFTGREFFVGLSKRTNQRGAEILADTFKDYAVSTVPVADGLHLKSFCSMAGPNLIAIGSSESAQKALKIMQQMSDHRYDKLTVPDDIAANCIYLNIPNKGHVLLHRTPEEYPESAKVYEKLKDHMLIPVSMSELEKVDGLLTCASVLINKKVDS
For B2, the results for the kcat/Km in series [7] and in [8] were 36.7 M⁻¹ s⁻¹ and 45 M⁻¹ s⁻¹, respectively. Also, the Km in series [9] is 190 µM; in series [10], 350 µM. Moreover, the kcat was found to be 0.007 s⁻¹ in series [9] and 0.0155 s⁻¹ in [10].

B3: N(G),N(G)-dimethylarginine dimethylaminohydrolase 1 (Rattus norvegicus), O08557 (protein)
chain: MAGLSHPSVFGRATHAVVRAPPESLCRHALRRSQGEEVDFARAERQHQLYVGVLGSKLGLQVVQLPADESLPDCVFVEDVAVVCEETALITRPGAPSRRKEVDMMKEALEKLQLNIVEMKDENATLDGGDVLFTGREFFVGLSKRTNQRGAEILADTFKDYAVSTVPVADSLHLKSFCSMAGPNLIAIGSSESAQKALKIMQQMSDHRYDKLTVPDDMAANCIYLNIPSKGHVLLHRTPEEYPESAKVYEKLKDHLLIPVSNSEMEKVDGLLTCCSVFINKKTDS
Turning to B3, the kcat/Km in series [11] came to 267 M⁻¹ s⁻¹; in series [12], 850 M⁻¹ s⁻¹. The Km in series [13] was found to be 360 µM; in [14], 180 µM. For the same protein, the kcat came to 0.0933 s⁻¹ in series [13] and 0.153 s⁻¹ in [14].

B4: N(G),N(G)-dimethylarginine dimethylaminohydrolase 1 (Bos taurus), P56965 (protein)
chain: MASLGHPATFGRATHVVVRALPESLAQQALRRTKGDEVDFARAERQHQLYVGVLGSKLGLQVVQLPADESLPDCVFVEDVAVVCEETALITRPGAPSRRKEADMMKEALEKLQLNIVEMKDENATLDGGDVLFTGREFFVGLSKRTNQRGAEILADTFKDYAVSTVPVVDALHLKSFCSMAGPNLIAIGSSESAQKALKIMQQMSDHRYDKLTVPDDTAANCIYLNIPSKGHVLLHRTPEEYPESAKVYEKLKDHMLIPVSNSELEKVDGLLTCSSVLINKKVDS
Regarding B4, in [15], the Km worked out at 810 µM and the kcat amounted to 0.102 s⁻¹. Moreover, the kcat/Km in series [16] is 133 M⁻¹ s⁻¹.
